Source: US9446226B2, “Drug-delivering composite structures” (Ramot at Tel-Aviv University Ltd., priority 2005, dated 2016)

Experiments:
[1] = In vitro paclitaxel release from composite fibrous structures; type: physicochemical; conditions: PBS 37° C.
Description: Cumulative release of paclitaxel from samples of composite fibrous structures was monitored and followed over a time period of four months. Samples of composite structures were immersed in PBS at 37° C. for 112 days. The medium was entirely removed periodically and assayed for drug release, and fresh medium was introduced. The paclitaxel content of each medium sample was determined using Agilent 1100 High Performance Liquid Chromatography (HPLC).

[2] = In-vitro HRP release from composite fibrous structures; type: physicochemical
Description: Various samples of HRP-containing composite fibrous structures were used to determine the release kinetics of HRP over a time period of 90 days. The HRP release studies were conducted in closed 1 ml glass vessels in which the HRP-containing composite fibrous structures were immersed in 1 ml sterile double-distilled water containing sodium azide as preservative (0.05% w/w) at 37° C. The entire aqueous medium was replaced periodically by fresh medium and HRP content in the removed medium was determined by the micro BCA assay method, by measuring absorbance at 595 nm.
Cumulative HRP release profiles were determined relative to the initial amount of HRP in each of the tested structures, i.e., the amount of HRP released during the incubation period and the residual HPR remaining in the structures. All experiments were performed in triplicate.
Residual protein recovery front composite fibrous structures: Residual protein recovery from spent composite fibrous structure samples used in the abovementioned in-vitro release experiments was conducted according to a previously described method [Jeffery H et al., Pharm. Res., 1993, 10(3), pp 362-368].
Briefly, composite fibrous structures were extracted in 1 ml sodium dodecyl sulfate (SDS)/NaOH 5%/0.1 M solution for 48 hours at 37° C. Following extraction, the HRP concentration was estimated using a micro BCA assay method as described hereinabove. Based on these assays, the exact amount of the HRP loaded in each structure was determined and served for calculating the percentages cited in the assays above.

[3] = as obtained from Aldrich; cited from earlier work

Compound | paclitaxel released during the first 24 hours ([1]; emulsions containing 2.9% w/w paclitaxel) [%] | paclitaxel released during the first 24 hours ([1]; fibers coated with emulsion containing 7.14% w/w paclitaxel) [%] | burst effect of paclitaxel release during the first days ([1]; standard reference emulsion (17.5% w/v polymer, 1.43% w/w paclitaxel, O:A 2:1), nylon core) | initial burst of HRP release ([2]; 1% w/w HRP load, O:A 4:1, water with sodium azide, 37° C.) [%] | initial burst of HRP release (mean) ([2]; 5% w/w HRP load, O:A 4:1, water with sodium azide, 37° C.) [%] | active enzyme released during the 90 day experiment ([2]; 5% w/w HRP load, O:A 4:1, 8:1, 16:1, coat-polymer 13%, 15%, 19% w/v, 90 days) | burst effect of HRP release ([2]; O:A 4:1 formulations, 5% w/w HRP load) | burst effect of HRP release ([2]; O:A 8:1, 5% w/w HRP, highest coat-polymer content (19% w/v)) [%] | burst effect of HRP release ([2]; O:A 8:1, 5% w/w HRP, lowest coat-polymer content (13% w/v)) [%] | burst effect of HRP release ([2]; O:A 16:1, 5% w/w HRP, highest coat-polymer content (19% w/v)) [%] | burst effect of HRP release ([2]; O:A 16:1, 5% w/w HRP, lowest coat-polymer content (13% w/v)) [%] | burst effect of HRP release ([2]; O:A 16:1 formulations, 5% w/w HRP load) | initial enzymatic activity [3] [U/mg]
CC(=O)O[C@H]1C(=O)[C@@]2(C)[C@H]([C@H](OC(=O)c3ccccc3)[C@]3(O)C[C@H](OC(=O)[C@H](O)[C@@H](NC(=O)c4ccccc4)c4ccccc4)C(C)=C1C3(C)C)[C@]1(OC(C)=O)CO[C@@H]1C[C@@H]2O [paclitaxel, Paclitaxel] | 3 | 7 | less than 3% |  |  |  |  |  |  |  |  |  | 
Horseradish peroxidase [HRP] |  |  |  | 20 | 70 | at least 90% | 70-80% | 26 | 66 | 10 | 20 | 10-20% | 500
